For test [1], the target named is soluble LDL receptor ectodomain (UniProt P01130). In words: BLI. On the technique in general: Biolayer interferometry detects binding as a change in optical thickness at a sensor tip.
Test [2] has the same target. As to the kind of experiment: ELISA. A general note: An ELISA detects its analyte on a solid surface through an enzyme-linked reagent.

One may read the Kd as the equilibrium constant for the complex coming apart. A higher Kd goes with a looser complex. In general, koff refers to a measure of how fast the partners let go of each other. Higher therefore signals fast dissociation. In general, kon refers to a measure of how fast the partners come together.

Sequence of soluble LDL receptor ectodomain (P01130 22-788): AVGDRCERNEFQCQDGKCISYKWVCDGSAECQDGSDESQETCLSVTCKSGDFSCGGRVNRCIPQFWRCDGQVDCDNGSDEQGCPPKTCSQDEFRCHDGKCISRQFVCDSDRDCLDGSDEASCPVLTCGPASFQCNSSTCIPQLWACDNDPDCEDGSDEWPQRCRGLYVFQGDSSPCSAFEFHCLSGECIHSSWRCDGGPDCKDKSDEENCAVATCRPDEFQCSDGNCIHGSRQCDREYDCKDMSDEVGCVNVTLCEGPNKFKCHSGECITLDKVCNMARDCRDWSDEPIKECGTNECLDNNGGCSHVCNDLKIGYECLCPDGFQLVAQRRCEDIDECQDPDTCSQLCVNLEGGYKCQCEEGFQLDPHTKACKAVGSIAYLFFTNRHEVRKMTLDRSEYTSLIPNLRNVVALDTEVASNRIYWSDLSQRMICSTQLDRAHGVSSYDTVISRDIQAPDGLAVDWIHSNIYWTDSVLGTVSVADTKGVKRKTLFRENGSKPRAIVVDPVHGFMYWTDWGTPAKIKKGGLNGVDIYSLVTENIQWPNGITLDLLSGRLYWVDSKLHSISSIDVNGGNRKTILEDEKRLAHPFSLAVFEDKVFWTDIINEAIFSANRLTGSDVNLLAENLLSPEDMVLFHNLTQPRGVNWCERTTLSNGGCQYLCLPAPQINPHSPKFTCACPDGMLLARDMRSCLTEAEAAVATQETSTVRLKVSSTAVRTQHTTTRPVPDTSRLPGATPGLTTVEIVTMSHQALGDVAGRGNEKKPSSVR

In test [1], “purified hepsin-cleaved PCSK9 (from UniProt Q8NBP7) (natural protein)” had a Kd of 0.268 µM, a koff of 0.00858 s⁻¹ and a kon of 32000 M⁻¹ s⁻¹. In test [2], the affinity loss against intact PCSK9 (IC50 intact/IC50 cleaved), fold is 1.4 fold.

Regarding “purified furin-cleaved PCSK9 (from UniProt Q8NBP7) (natural protein)”, in test [1], the Kd was 0.356 µM, the off-rate (koff) was 0.0138 s⁻¹ and the kon is 39000 M⁻¹ s⁻¹. In test [2], this substance registered an affinity loss against intact PCSK9 (IC50 intact/IC50 cleaved), fold of 1.1 fold.
